According to patent publication US20170030911:
Positions count from the first letter of the chain named. Names and notes keep the numbering of the source.

T1: recombinant human decorin, P07585
T1 chain: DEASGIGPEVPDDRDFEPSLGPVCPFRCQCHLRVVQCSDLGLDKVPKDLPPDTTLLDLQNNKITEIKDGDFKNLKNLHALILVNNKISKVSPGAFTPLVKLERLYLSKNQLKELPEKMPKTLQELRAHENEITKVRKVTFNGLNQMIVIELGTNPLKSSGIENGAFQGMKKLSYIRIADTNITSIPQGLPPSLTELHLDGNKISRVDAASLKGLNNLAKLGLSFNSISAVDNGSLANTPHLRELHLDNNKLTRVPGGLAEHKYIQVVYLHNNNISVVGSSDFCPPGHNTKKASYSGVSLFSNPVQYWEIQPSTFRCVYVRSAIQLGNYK

T2: recombinant human biglycan, P21810
T2 chain: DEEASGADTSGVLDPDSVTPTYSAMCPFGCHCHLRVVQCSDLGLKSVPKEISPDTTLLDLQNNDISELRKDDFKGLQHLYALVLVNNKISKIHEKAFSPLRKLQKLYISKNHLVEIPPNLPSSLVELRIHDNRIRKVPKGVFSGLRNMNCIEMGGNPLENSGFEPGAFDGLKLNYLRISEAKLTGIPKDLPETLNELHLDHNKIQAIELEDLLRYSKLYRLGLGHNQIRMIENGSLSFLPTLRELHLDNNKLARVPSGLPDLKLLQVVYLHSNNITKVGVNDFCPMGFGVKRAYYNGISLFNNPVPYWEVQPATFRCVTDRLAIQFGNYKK

T3: recombinant human E-cadherin, P12830
T3 chain: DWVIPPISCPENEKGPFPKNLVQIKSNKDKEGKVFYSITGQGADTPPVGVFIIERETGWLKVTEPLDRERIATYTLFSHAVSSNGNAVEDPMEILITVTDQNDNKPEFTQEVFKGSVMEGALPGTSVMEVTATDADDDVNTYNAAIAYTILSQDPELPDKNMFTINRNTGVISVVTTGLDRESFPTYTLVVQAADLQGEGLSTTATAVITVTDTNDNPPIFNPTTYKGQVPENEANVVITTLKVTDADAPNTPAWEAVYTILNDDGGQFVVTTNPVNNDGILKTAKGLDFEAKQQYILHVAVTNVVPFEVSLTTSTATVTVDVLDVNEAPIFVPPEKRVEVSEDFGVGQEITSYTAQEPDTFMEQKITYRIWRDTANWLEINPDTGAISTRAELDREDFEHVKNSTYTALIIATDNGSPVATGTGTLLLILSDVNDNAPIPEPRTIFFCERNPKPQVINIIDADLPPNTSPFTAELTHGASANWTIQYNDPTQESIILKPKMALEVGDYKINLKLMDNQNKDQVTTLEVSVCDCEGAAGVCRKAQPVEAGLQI

T4: native bovine biglycan, P21809
T4 chain: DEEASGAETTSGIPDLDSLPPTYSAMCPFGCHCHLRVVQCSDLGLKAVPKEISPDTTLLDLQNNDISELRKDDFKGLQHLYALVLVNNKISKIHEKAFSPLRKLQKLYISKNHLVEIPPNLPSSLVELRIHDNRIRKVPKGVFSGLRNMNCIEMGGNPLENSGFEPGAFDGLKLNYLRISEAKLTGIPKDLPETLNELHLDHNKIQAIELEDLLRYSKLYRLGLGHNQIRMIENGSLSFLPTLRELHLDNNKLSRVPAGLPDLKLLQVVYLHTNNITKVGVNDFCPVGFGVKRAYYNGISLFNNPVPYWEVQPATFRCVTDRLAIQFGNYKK

T5: recombinant human brevican, Q96GW7
T5 chain: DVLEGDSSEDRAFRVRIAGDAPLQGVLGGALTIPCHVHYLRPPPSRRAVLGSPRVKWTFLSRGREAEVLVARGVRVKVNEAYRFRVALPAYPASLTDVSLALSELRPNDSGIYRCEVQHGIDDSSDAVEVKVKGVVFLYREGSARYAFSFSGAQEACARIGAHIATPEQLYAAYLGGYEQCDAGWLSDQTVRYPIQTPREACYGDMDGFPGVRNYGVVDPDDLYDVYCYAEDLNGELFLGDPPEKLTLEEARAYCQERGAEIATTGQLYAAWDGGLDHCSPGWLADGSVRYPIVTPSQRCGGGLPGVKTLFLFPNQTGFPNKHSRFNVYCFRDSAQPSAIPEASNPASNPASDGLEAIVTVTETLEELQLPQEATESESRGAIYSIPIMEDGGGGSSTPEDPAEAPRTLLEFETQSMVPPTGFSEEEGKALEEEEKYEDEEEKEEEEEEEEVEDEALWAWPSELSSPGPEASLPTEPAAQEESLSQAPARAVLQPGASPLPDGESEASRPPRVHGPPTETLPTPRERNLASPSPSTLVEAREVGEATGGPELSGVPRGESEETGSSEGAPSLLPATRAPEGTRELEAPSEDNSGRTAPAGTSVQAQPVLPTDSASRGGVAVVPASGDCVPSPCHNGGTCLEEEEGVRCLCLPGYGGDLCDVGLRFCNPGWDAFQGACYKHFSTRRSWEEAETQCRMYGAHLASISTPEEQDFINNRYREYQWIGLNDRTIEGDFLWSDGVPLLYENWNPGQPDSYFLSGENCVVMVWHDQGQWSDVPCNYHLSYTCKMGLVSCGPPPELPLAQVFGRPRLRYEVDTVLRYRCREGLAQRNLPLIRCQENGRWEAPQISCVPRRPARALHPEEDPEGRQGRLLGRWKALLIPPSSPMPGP

T6: native bovine decorin, P21793
T6 chain: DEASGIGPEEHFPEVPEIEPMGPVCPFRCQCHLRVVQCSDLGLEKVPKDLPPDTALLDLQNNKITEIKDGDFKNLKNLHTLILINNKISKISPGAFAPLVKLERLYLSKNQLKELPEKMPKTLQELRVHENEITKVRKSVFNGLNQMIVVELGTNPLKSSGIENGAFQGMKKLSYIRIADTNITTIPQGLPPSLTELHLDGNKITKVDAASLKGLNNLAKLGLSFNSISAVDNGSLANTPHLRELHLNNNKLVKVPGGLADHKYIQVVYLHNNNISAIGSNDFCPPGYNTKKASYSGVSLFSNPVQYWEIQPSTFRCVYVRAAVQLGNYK

B1: Borrelia burgdorferi HtrA (BB0104, BbHtrA), recombinant wild type mature protein (amino acids 38-474), His-tagged, made in E. coli (protein)
chain: EEKDNTVRALQDSFREVSKKILPSSVEVHATGVIKQSFPIPFFFFDMPEFDSERKSNWAGSGVIIGRDSQKKSLFYVVTNSHVVDKATELEVVSYDKKKHKAKLIGKDEKKDIALISFESDDATIKVADLGDSDKLEIGDWVMAVGSPFQFSFTVTAGIVSGLQRSANPNLQSRNLFIQTDAAINRGNSGGPLVNIKGEVIGINAWIASNSGGNIGLGFAIPVNNIKSTVDFFLKGKKIESAWLGISFYPLKTRDSEVLKSLGVESNDVSAAIIASLYPGSPAVKSGLRAGDIIMKVNGVSMSVFQDVTSYISDFYAGEKVNVEILRGNVKKNIEIVLAVRPKDKELSSSKMLPGFVVYPLVEDIKAQLNLRNWIKGVVVDYIDKNLASNIKMKSGDVILSVNSKSVSNLREFYDALEVGKNTYKILRGNDSFKITF
B2: Borrelia burgdorferi HtrA (BB0104, BbHtrA^S226A), recombinant inactive mutant, mature protein (amino (protein)
chain: B1 chain with S189A

Key:
[1] = molecular target: recombinant human neurocan, O14594
Sequence of recombinant human neurocan, O14594 (O14594 23-1321): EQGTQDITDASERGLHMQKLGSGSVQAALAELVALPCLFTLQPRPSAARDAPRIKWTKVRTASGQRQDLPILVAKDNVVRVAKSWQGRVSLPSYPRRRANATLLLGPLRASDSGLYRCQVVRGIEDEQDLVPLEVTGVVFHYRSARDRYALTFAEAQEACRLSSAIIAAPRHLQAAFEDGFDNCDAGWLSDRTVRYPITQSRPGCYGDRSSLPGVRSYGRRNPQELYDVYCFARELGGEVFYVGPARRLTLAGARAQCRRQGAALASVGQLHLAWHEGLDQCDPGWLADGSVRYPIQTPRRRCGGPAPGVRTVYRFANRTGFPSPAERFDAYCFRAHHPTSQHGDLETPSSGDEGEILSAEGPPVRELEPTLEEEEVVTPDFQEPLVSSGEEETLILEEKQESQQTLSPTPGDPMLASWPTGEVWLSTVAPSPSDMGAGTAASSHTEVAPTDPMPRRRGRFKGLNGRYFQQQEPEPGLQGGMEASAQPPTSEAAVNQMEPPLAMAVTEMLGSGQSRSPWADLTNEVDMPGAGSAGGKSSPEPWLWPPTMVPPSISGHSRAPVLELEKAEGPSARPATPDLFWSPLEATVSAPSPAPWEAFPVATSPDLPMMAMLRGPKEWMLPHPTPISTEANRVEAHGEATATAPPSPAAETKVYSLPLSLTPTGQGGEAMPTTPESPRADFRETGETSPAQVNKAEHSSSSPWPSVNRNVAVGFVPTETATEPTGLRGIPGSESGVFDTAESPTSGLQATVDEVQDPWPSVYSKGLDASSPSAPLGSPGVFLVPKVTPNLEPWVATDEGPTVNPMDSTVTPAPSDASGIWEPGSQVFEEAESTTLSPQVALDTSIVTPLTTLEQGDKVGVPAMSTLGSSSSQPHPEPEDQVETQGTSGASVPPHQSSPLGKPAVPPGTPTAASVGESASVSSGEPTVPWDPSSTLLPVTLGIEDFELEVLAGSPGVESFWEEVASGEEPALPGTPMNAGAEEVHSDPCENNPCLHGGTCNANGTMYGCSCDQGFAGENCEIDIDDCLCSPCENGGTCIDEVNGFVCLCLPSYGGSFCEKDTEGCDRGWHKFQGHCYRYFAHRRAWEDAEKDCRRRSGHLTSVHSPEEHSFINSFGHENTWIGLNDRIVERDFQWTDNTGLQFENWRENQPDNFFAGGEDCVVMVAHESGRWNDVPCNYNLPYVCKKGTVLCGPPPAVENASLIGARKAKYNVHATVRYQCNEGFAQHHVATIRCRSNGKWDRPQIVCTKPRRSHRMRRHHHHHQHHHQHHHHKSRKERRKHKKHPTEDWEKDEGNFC

[2] = molecular target: T1, recombinant human decorin, P07585
[3] = molecular target: T2, recombinant human biglycan, P21810
[4] = molecular target: recombinant human versican, P13611
[5] = molecular target: native bovine aggrecan, fully glycosylated, P13608
Sequence of native bovine aggrecan, fully glycosylated, P13608 (P13608 17-2364): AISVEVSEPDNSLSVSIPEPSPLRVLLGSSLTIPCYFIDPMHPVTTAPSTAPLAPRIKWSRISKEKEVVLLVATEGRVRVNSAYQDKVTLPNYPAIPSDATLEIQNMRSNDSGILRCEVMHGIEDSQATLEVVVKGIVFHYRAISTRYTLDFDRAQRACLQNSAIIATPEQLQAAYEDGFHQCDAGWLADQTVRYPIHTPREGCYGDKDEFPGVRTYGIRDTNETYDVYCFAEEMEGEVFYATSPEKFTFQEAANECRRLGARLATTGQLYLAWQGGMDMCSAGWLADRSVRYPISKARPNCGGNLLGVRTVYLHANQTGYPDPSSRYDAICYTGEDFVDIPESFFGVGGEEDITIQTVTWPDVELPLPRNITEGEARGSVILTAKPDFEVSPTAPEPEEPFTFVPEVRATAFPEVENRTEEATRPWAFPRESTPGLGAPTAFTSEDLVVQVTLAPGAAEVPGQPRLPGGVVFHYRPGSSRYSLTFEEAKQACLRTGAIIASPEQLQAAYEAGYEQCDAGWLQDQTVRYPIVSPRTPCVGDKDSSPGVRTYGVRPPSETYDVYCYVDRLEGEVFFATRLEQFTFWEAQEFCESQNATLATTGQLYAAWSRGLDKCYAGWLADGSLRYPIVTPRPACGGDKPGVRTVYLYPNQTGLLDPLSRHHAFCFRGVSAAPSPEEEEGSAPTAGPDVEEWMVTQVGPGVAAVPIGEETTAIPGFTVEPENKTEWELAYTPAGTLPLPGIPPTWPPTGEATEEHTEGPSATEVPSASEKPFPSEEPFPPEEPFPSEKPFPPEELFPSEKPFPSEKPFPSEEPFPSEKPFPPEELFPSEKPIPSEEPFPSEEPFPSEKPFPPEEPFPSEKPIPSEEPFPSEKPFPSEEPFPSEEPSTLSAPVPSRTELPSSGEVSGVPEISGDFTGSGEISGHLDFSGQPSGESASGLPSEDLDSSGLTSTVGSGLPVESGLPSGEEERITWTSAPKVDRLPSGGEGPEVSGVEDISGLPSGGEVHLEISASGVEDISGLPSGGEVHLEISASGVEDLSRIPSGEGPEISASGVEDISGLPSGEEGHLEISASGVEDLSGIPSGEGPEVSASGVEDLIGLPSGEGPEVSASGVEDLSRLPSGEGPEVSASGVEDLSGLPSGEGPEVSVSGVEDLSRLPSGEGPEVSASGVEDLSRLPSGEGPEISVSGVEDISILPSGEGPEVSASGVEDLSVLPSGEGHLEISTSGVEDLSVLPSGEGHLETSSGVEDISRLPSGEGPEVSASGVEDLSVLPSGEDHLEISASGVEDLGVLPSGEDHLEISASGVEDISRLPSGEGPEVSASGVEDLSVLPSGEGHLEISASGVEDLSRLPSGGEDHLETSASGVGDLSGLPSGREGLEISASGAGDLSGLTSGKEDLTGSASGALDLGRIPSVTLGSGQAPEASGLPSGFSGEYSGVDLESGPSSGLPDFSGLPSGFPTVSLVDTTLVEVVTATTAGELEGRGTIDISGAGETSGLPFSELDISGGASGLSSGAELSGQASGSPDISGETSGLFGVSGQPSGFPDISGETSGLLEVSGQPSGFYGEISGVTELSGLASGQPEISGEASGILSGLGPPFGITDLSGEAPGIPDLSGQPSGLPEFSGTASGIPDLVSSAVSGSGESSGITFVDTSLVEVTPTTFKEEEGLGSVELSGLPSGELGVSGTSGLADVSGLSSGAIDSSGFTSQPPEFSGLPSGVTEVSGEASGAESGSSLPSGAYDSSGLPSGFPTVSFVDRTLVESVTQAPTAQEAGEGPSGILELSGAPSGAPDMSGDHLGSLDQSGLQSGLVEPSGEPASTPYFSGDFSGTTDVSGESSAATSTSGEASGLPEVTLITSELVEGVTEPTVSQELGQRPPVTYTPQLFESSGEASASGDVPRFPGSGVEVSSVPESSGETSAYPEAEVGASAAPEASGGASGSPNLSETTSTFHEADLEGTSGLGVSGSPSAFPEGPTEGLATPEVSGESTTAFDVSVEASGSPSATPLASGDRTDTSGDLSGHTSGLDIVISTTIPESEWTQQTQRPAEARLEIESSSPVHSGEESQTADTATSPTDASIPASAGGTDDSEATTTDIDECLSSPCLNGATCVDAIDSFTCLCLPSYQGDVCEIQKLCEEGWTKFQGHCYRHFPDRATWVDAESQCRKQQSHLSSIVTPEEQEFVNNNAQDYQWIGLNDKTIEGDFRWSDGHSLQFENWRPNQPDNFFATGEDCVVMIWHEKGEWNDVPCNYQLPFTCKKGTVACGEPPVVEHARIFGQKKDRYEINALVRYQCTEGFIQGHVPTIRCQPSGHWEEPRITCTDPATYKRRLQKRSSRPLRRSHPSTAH

[6] = molecular target: native human plasma fibronectin, P02751
[7] = molecular target: T3, recombinant human E-cadherin, P12830
[8] = molecular target: T4, native bovine biglycan, P21809
[9] = molecular target: recombinant human aggrecan (G1-IGD-G2 domains), P16112
Sequence of recombinant human aggrecan (G1-IGD-G2 domains), P16112 (P16112 20-675): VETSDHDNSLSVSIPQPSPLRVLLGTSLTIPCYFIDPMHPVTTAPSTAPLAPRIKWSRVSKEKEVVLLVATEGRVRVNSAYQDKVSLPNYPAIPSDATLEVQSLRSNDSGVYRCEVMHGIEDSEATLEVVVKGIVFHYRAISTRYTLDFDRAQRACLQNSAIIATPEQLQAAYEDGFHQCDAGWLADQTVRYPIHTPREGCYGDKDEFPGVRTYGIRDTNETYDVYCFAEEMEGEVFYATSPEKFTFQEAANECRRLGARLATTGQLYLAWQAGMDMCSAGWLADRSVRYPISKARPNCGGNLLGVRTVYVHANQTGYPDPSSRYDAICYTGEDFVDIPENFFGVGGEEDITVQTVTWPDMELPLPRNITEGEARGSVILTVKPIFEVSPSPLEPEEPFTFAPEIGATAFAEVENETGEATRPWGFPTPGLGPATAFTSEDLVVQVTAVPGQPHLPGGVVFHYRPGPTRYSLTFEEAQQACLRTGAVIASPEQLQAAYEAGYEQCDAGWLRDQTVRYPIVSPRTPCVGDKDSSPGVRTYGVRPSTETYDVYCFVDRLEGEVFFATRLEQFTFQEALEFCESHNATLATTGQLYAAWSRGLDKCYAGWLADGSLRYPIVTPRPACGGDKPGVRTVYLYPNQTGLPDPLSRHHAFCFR

[10] = molecular target: β-casein (in 12% β-casein Zymogram Ready Gels, Bio-Rad)
[11] = molecular target: T5, recombinant human brevican, Q96GW7
[12] = molecular target: T6, native bovine decorin, P21793

Protein | Proteolytic activity [1] | Proteolytic activity [2] | Proteolytic activity [3] | Proteolytic activity [4] | Proteolytic activity [5] | Proteolytic activity [6] | Proteolytic activity [7] | Proteolytic activity [8] | Proteolytic activity [9] | Proteolytic activity (native bovine casein) | β-casein zymography [10] | Proteolytic activity [11] | Proteolytic activity [12] | proteolytic fragments on silver-stained SDS-PAGE [9]
B1 | + | + | + | + | + | + | + | + | + | + | Recombinant BbHtrA was proteolytically active against β-casein as evidenced by clearing around the protein band | + | + | –
B2 | – | – | – | – | – | – | – | – | – | – | – | – | – | incubation of recombinant aggrecan (FIG. 4A, lane 1) alone or with the inactive mutant (FIG. 4A, lane 6) failed to generate these fragments
